Results: FireProtDB (doi:10.1093/protein/gzw068)

B1: C30V, Q93D82 (parent)
chain: MSTAIVTNVKHFGGMGSALRLSEAGHTVACHDESFKQKDELEAFAETYPQLKPMSEQEPAELIEAVTSAYGQVDVLVSNDIFAPEFQPIDKYAVEDYRGAVEALQIRPFALVNAVASQMKKRKSGHIIFITSATPFGPWKELSTYTSARAGACTLANALSKELGEYNIPVFAIGPNYLHSEDSPYFYPTEPWKTNPEHVAHVKKVTALQRLGTQKELGELVAFLASGSCDYLTGQVFWLAGGFPMIERWPGMPE

Variants of: B1
Conditions: Rhizobium radiobacter; pH 7.7; Thermal; CD; Phosphate 5mM; structure 1PWX; whole UniProt chain shown

Row | Variant | Tm [°C] | change of melting temperature, mutant - wild type (higher = more stable) [°C]
1 | MSTAIVTNVKHFGGMGSALRLSEAGHTVAVHDESFKQKDELEAFAETYPQLKPMSEQEPAELIEAVTSAYGQVDVLVSNDIFAPEFQPIDKYAVEDYRGAVEALQIRPFALVNAVASQMKKRKSGHIIFITSATPFGPWKELSTYTSARAGACTLANALSKELGEYNIPVFAIGPNYLHSEDSPYFYPTEPWKTNPEHVAHVKKVTALQRLGTQKELGELVAFLASGSCDYLTGQVFWLAGGFPMIERWPGMPE [C30V] | 64 | -1
2 | MSTAIVTNVKHFGGMGSALRLAEAGHTVACHDESFKQKDELEAFAETYPQLKPMSEQEPAELIEAVTSAYGQVDVLVSNDIFAPEFQPIDKYAVEDYRGAVEALQIRPFALVNAVASQMKKRKSGHIIFITSATPFGPWKELSTYTSARAGACTLANALSKELGEYNIPVFAIGPNYLHSEDSPYFYPTEPWKTNPEHVAHVKKVTALQRLGTQKELGELVAFLASGSCDYLTGQVFWLAGGFPMIERWPGMPE [S22A] | 64.5 | -0.5
3 | MSTAIVFNVKHFGGMGSALRLSEAGHTVACHDESFKQKDELEAFAETYPQLKPMSEQEPAELIEAVTSAYGQVDVLVSNDIFAPEFQPIDKYAVEDYRGAVEALQIRPFALVNAVASQMKKRKSGHIIFITSATPFGPWKELSTYTSARAGACTLANALSKELGEYNIPVFAIGPNYLHSEDSPYFYPTEPWKTNPEHVAHVKKVTALQRLGTQKELGELVAFLASGSCDYLTGQVFWLAGGFPMIERWPGMPE [T7F] | 65 | 0
4 | MSTAIVMNVKHFGGMGSALRLSEAGHTVACHDESFKQKDELEAFAETYPQLKPMSEQEPAELIEAVTSAYGQVDVLVSNDIFAPEFQPIDKYAVEDYRGAVEALQIRPFALVNAVASQMKKRKSGHIIFITSATPFGPWKELSTYTSARAGACTLANALSKELGEYNIPVFAIGPNYLHSEDSPYFYPTEPWKTNPEHVAHVKKVTALQRLGTQKELGELVAFLASGSCDYLTGQVFWLAGGFPMIERWPGMPE [T7M] | 65 | 0
5 | MSTAIVTNVKHFGGMGSALRLSEAGMTVACHDESFKQKDELEAFAETYPQLKPMSEQEPAELIEAVTSAYGQVDVLVSNDIFAPEFQPIDKYAVEDYRGAVEALQIRPFALVNAVASQMKKRKSGHIIFITSATPFGPWKELSTYTSARAGACTLANALSKELGEYNIPVFAIGPNYLHSEDSPYFYPTEPWKTNPEHVAHVKKVTALQRLGTQKELGELVAFLASGSCDYLTGQVFWLAGGFPMIERWPGMPE [H26M] | 64.5 | -0.5
6 | MSTAIVTNVKHFGGMGSALRLSEAGHMVACHDESFKQKDELEAFAETYPQLKPMSEQEPAELIEAVTSAYGQVDVLVSNDIFAPEFQPIDKYAVEDYRGAVEALQIRPFALVNAVASQMKKRKSGHIIFITSATPFGPWKELSTYTSARAGACTLANALSKELGEYNIPVFAIGPNYLHSEDSPYFYPTEPWKTNPEHVAHVKKVTALQRLGTQKELGELVAFLASGSCDYLTGQVFWLAGGFPMIERWPGMPE [T27M] | 65 | 0
7 | MSTAIVTNVKHFGGMGSALRLSEAGHLVACHDESFKQKDELEAFAETYPQLKPMSEQEPAELIEAVTSAYGQVDVLVSNDIFAPEFQPIDKYAVEDYRGAVEALQIRPFALVNAVASQMKKRKSGHIIFITSATPFGPWKELSTYTSARAGACTLANALSKELGEYNIPVFAIGPNYLHSEDSPYFYPTEPWKTNPEHVAHVKKVTALQRLGTQKELGELVAFLASGSCDYLTGQVFWLAGGFPMIERWPGMPE [T27L] | 65 | 0
8 | MSTAIVTNVKHFGGMGSALRLSEAGHVVACHDESFKQKDELEAFAETYPQLKPMSEQEPAELIEAVTSAYGQVDVLVSNDIFAPEFQPIDKYAVEDYRGAVEALQIRPFALVNAVASQMKKRKSGHIIFITSATPFGPWKELSTYTSARAGACTLANALSKELGEYNIPVFAIGPNYLHSEDSPYFYPTEPWKTNPEHVAHVKKVTALQRLGTQKELGELVAFLASGSCDYLTGQVFWLAGGFPMIERWPGMPE [T27V] | 64.5 | -0.5
9 | MSTAIVTNVKHFGGMGSALRLSEAGHTVLCHDESFKQKDELEAFAETYPQLKPMSEQEPAELIEAVTSAYGQVDVLVSNDIFAPEFQPIDKYAVEDYRGAVEALQIRPFALVNAVASQMKKRKSGHIIFITSATPFGPWKELSTYTSARAGACTLANALSKELGEYNIPVFAIGPNYLHSEDSPYFYPTEPWKTNPEHVAHVKKVTALQRLGTQKELGELVAFLASGSCDYLTGQVFWLAGGFPMIERWPGMPE [A29L] | 68 | 3
10 | MSTAIVTNVKHFGGMGSALRLSEAGHTVACHDPSFKQKDELEAFAETYPQLKPMSEQEPAELIEAVTSAYGQVDVLVSNDIFAPEFQPIDKYAVEDYRGAVEALQIRPFALVNAVASQMKKRKSGHIIFITSATPFGPWKELSTYTSARAGACTLANALSKELGEYNIPVFAIGPNYLHSEDSPYFYPTEPWKTNPEHVAHVKKVTALQRLGTQKELGELVAFLASGSCDYLTGQVFWLAGGFPMIERWPGMPE [E33P] | 64.5 | -0.5
11 | MKTAIVTNVKHFGGMGSALRLSEAGHTVACHDESFKQKDELEAFAETYPQLKPMSEQEPAELIEAVTSAYGQVDVLVSNDIFAPEFQPIDKYAVEDYRGAVEALQIRPFALVNAVASQMKKRKSGHIIFITSATPFGPWKELSTYTSARAGACTLANALSKELGEYNIPVFAIGPNYLHSEDSPYFYPTEPWKTNPEHVAHVKKVTALQRLGTQKELGELVAFLASGSCDYLTGQVFWLAGGFPMIERWPGMPE [S2K] | 66 | 1
12 | MSTAIVTNVKHFGGMGAALRLSEAGHTVACHDESFKQKDELEAFAETYPQLKPMSEQEPAELIEAVTSAYGQVDVLVSNDIFAPEFQPIDKYAVEDYRGAVEALQIRPFALVNAVASQMKKRKSGHIIFITSATPFGPWKELSTYTSARAGACTLANALSKELGEYNIPVFAIGPNYLHSEDSPYFYPTEPWKTNPEHVAHVKKVTALQRLGTQKELGELVAFLASGSCDYLTGQVFWLAGGFPMIERWPGMPE [S17A] | 65 | 0
